# Source: article PMC5311907, “ClickIn: a flexible protocol for quantifying mitochondrial uptake of nucleobase derivatives” (Interface Focus, 2017)
# System: isolated rat liver mitochondria
# Assay: ClickIn/MPP uptake experiment in isolated rat liver mitochondria (MALDI-TOF quantification of clicked, processed PNA 8)
# Assay type: in vitro ADME
# Description: Rat liver mitochondria were prepared by differential centrifugation as previously described, and diluted to a 20 mg protein ml^−1 concentration in STE buffer (250 mM sucrose, 5 mM Tris, 1 mM EGTA, pH 7.4) and stored for a maximum of 3 h on ice. Peptide–PNA 6 was dissolved at the indicated concentrations in 100 µl KCl buffer (120 mM KCl, 10 mM HEPES, 1 mM EGTA, 1 mM ADP, 1 mM MgCl2, 1 mM KPi, 0.05% BSA, pH 7.4) supplemented with 10 mM potassium succinate, 4 µg ml^−1 rotenone and 10 µM MitoOct. Where indicated carbonyl cyanide-4-(trifluoromethoxy)phenylhydrazone (FCCP, 500 nM) was added to the buffer. The buffer was warmed for 5 min at 37°C after which the reaction was initiated by addition of 5 µl mitochondria suspension (100 µg protein). The mitochondria were incubated for 1 h at 37°C, after which the reaction was stopped by the addition of 3-phenyl-1,2,4,5-tetrazine (PhTet, 50 µM). The mitochondria were pelleted by centrifugation at 16 000g for 1 min, and supernatant was removed. Next 100 µl 20% acetonitrile solution with 0.1% formic acid, 50 µM PhTet and 0.1 µM internal standard 5 was added to the pellet. The pellet was suspended by three cycles of freezing in solid CO2 (5 min) and sonication in a Grant XB2 ultrasonic bath. The obtained solution was centrifuged at 16 000g for 10 min. The sample was spotted onto an MALDI-plate using the bottom-layer method. Matrix (0.75 µl, 50% acetonitrile, 5 mg ml^−1 α-cyano-4-hydroxycinnamic acid, 10 mM dibasic ammonium citrate, 0.1% TFA) was spotted on the plate and 0.75 µl sample was mixed in. The spot was left to dry at room temperature, after which another layer of 0.75 µl of matrix was added. In total, 20 spectra with 10 shots each were collected per spot, using a minimum intensity of 1000 and a maximum of 10 000 as selection criterion, averages were taken of three spots per experiment. All experiments were performed in triplicate using different mitochondrial preparations and are presented as averages ±s.e.m.
# Isolated rat liver mitochondria were incubated with various concentrations of peptide (0.1–10 µM) in import buffer, in the presence of MitoOct, for 1 h at 37°C. As previously described, the reaction was stopped by addition of PhTET and centrifugation. The pellet was extracted (20% acetonitrile, 0.1% formic acid, 50 µM PhTet, 0.1 μM 5) and analysed by MALDI-TOF (figure 3 and electronic supplementary material, S1). […] This is consistent with FCCP not only inhibiting the ClickIn reaction, but also inhibiting the processing of COX8-PNA-click by stopping import of 6. The absence of signal in the presence of FCCP is striking (figure 3 and electronic supplementary material, S1), and enables the qualitative observation of PNA uptake in isolated mitochondria. […] It is interesting to note that, even though the MPP is known to cleave after the 25th residue of the COX8 pre-sequence, we see no evidence of the four amino acids, IHSL, predicted to remain at the N-terminal of our cleaved product. Our previous unpublished results have shown a very minor amount of the PNA product still carrying leucine at the N-terminal but not any of the remaining amino acids. It is likely that these residues are removed by a protease residing in the mitochondrial matrix.
substance,measurement,setting,value
COX8-Cys-Ac-GTCA-Lys(N3)-NH2 [compound 6],formation of product 8 in the presence of FCCP (uncoupled membrane potential),"as the uptake experiment, plus FCCP 500 nM, all added concentrations of 6 (0.1–10 µM), 1 h at 37°C, MALDI-TOF",no product 8 could be observed
same,formation of clicked PNA (product 8) as measure of mitochondrial matrix import,"isolated rat liver mitochondria (100 µg protein) in 100 µl KCl buffer pH 7.4, 10 mM succinate, 4 µg/ml rotenone, 10 µM MitoOct, 0.1–10 µM 6, 1 h at 37°C, stopped with 50 µM PhTet, pellet extract, MALDI-TOF with 0.1 µM internal standard 5, triplicate, different mitochondrial preparations",Significant amounts of clicked PNA were observed in all samples
same,concentration dependence of the ClickIn/MPP reaction (quantified 8),"isolated rat liver mitochondria, 10 µM MitoOct, 1 h at 37°C, MALDI-TOF with internal standard 5, figure 3c, averages ± s.e.m., triplicate",typical dose–response curve for concentrations of 6 up to 5 µM
same,cleaved but not clicked 6 seen in mass spectra,"isolated rat liver mitochondria, 10 µM MitoOct, 1 h at 37°C, MALDI-TOF, without FCCP, not observed in the presence of FCCP",small amounts of cleaved but not clicked 6
same,toxic effect on the mitochondria,"isolated rat liver mitochondria, concentrations of 6 higher than 5 µM, inferred from the dose–response curve",might have a toxic effect on the mitochondria
